Test results taken from patent publication US20240092922A1.

Experiments:
[1] = target: Histidine-tagged human 4-1BB protein (h4-1BB-His) (human) (UniProt Q07011); assay: SPR (Biacore T200), antibody on Protein A chip, h4-1BB-His injected
[2] = target: monkey (Rhesus macaque) 4-1BB (r4-1BB) on transfected CHO cells (monkey (Rhesus macaque)); assay: flow cytometry on CHO-r4-1BB (T) cells, negative control panel, detection with anti-mouse-IgG-Fc-PE (1:500)
[3] = target: mouse 4-1BB (m4-1BB) on transfected CHO cells (mouse) (UniProt P20334); assay: flow cytometry on CHO-m4-1BB cells, negative control panel, detection with anti-mouse-IgG-Fc-FITC (1:100)
[4] = target: human 4-1BB (h4-1BB) on transiently transfected CHO cells (human) (UniProt Q07011); assay: flow cytometry on CHO cells transiently transfected with human 4-1BB, detection with anti-mouse-IgG-Fc-FITC (1:100), SSC-H against FITC; negative control panel
[5] = target: chimeric (mouse and human) 4-1BB (c4-1BB) on transfected CHO cells (chimeric (mouse and human)); assay: flow cytometry on CHO-c4-1BB cells, negative control panel, detection with anti-mouse-IgG-Fc-FITC (1:100)

Sequence of urelumab (antibody) (VH): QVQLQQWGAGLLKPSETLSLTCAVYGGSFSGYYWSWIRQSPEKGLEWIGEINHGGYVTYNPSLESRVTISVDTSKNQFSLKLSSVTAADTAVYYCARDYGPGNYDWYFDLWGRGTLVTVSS
Sequence of urelumab (antibody) (VL): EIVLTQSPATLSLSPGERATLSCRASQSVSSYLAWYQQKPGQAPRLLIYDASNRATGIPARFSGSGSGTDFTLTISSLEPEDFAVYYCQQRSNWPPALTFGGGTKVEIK

With urelumab (antibody) the Kd [1] was 44.3 nM, the koff [1] was 0.00302 s⁻¹ and the kon [1] was 68100 M⁻¹ s⁻¹.
NC gave a percent of cells in the PE-positive gate [2] of 0.429%, a percent of cells in the FITC-positive gate [3] of 0.983% and a percent of cells in the FITC-positive gate [4] of 0.598%. The percent of cells in the FITC-positive gate [5] was 1.07%.
